Experimental data: PMC4065332, “PEX14 binding to Arabidopsis PEX5 has differential effects on PTS1 and PTS2 cargo occupancy of the receptor” (Febs Letters, 2014)
Where no end group is shown, it is not given here. lissamine = lissamine: fluorescent label (lissamine) on the peptide

T1: PEX5 (340–728), termed PEX5C (Arabidopsis thaliana, UniProt Q9FMA3 340-728)
T1 construct: Arabidopsis PEX5 residues 340-728; holds six of the nine W-X3-F/Y motifs and the TPR domain; lacks residues 314-334; also called His6-PEX5C; AtPEX5C; source: E. coli, purified via IMAC
T1 sequence (looked up): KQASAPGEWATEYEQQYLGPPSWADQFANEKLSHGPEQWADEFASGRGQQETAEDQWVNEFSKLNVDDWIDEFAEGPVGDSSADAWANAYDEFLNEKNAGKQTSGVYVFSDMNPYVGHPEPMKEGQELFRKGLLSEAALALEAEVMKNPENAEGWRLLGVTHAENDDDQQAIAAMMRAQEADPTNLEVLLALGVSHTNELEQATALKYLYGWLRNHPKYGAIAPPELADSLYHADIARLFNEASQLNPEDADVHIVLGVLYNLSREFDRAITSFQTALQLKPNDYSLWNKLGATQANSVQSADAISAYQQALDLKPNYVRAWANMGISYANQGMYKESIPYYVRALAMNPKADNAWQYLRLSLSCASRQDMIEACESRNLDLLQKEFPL

B1: HRP–YQSKL (CGGGYQSKL coupled to HRP–maleimide) (peptide)
peptide: C(HRP‑maleimide)GGGYQSKL
notes: generic PTS1 cargo peptide; also called HRP-SKL; peptide-HRP; source: synthetic peptide, coupled to HRP-maleimide (Sigma)
B2: lissamine-YQSKL (peptide)
peptide: lissamine-YQSKL
notes: canonical PTS1 cargo peptide; The name puts the lissamine before the peptide; also called lissamine-PTS1; PTS1

Legend:
Conditions in all cases: both partners purified
[1] = molecular target: T1, PEX5 (340–728), termed PEX5C; assay: far-Western, overlay or dot blot; purified PEX5 constructs pipetted onto nitrocellulose, blocked in 3% BSA PBS-T, probed 1 h with peptide-HRP (200 nM) or PEX14N-HRP (50 nM), ECL; for unloading then incubated with PEX14N 0.2 μM 1 h and 2 μM 16 h at 4 °C
[2] = molecular target: T1, PEX5 (340–728), termed PEX5C; assay: fluorescence polarisation; fluorescence anisotropy; the same dilution series of PEX5C with lissamine-YQSKL (100 nM) after addition of PEX14N to a constant 1 μM; HEPES 20 mM, NaCl 150 mM, pH 7.5
[3] = molecular target: T1, PEX5 (340–728), termed PEX5C; assay: fluorescence polarisation; fluorescence anisotropy; dilution series of PEX5C (1 μM–0.04 nM) with lissamine-YQSKL (100 nM); HEPES 20 mM, NaCl 150 mM, pH 7.5; fitted to a 1:1 binding model; without PEX14N

Binder | binding result [1] | Kd [2] | Kd [3]
B1 | binds |  | 
B2 |  | 11.5 ± 3.4 nM | 8.6 ± 4 nM
